We go through six sequences from the supplement of paper PMC5998384.

The test system of data set [1] is HeLa Kyoto. Nature of the data set: solubility in G1/S (NP-40 vs SDS abundance) (log2 ratio); higher = more soluble. Conditions: cell cycle stage: G1/S.
Data set [2] has as its system HeLa Kyoto. As to the kind of experiment: thermal stability score vs G1/S (z-score of summed log2 fold changes over temperatures); higher = more thermally stable than in G1/S.
Data set [3] deals with HeLa Kyoto. As to the kind of experiment: solubility change mitosis vs G1/S (difference of NP-40 vs SDS log2 ratios) (log2 ratio difference); higher = more soluble in mitosis.
The test system of data set [4] is HeLa Kyoto. As to the kind of experiment: melting temperature (median over replicates), in situ; higher = more thermally stable.
[5] abbreviates: cell cycle stage: early G1 (4.5 h after nocodazole release).
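Throughout, for melting temperature (median over replicates), in situ: HeLa Kyoto cells synchronized by double thymidine or nocodazole block, proteins quantified by TMT10plex mass spectrometry, three independent biological replicates.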
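Throughout, for solubility change mitosis vs G1/S (difference of NP-40 vs SDS log2 ratios): synchronized HeLa Kyoto cells (double thymidine block for G1/S, nocodazole release for mitosis), protein amounts in NP-40 versus SDS lysates quantified by mass spectrometry, three biological replicates.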
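Throughout, for solubility in G1/S (NP-40 vs SDS abundance): HeLa Kyoto cells arrested at G1/S by double thymidine block, proteins quantified by TMT10plex mass spectrometry in mild NP-40 versus SDS extracts, three biological replicates.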
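Throughout, for thermal stability score vs G1/S (z-score of summed log2 fold changes over temperatures): synchronized HeLa Kyoto cells, proteins quantified by TMT10plex mass spectrometry, three biological replicates, mitosis taken 0.5 h after nocodazole release, G1/S directly after double thymidine block.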

On to “MGDSDDEYDRRRRDKFRRERSDYDRSRERDERRRGDDWNDREWDRGRERRSRGEYRDYDRNRRERFSPPRHELSPPQKRMRRDWDEHSSDPYHSGYEMPYAGGGGGPTYGPPQPWGHPDVHIMQHHVLPIQARLGSIAEIDLGVPPPVMKTFKEFLLSLDDSVDETEAVKRYNDYKLDFRRQQMQDFFLAHKDEEWFRSKYHPDEVGKRRQEARGALQNRLRVFLSLMETGWFDNLLLDIDKADAIVKMLDAAVIKMEGGTENDLRILEQEEEEEQAGKPGEPSKKEEGRAGAGLGDGERKTNDKDEKKEDGKQAENDSSNDDKTKKSEGDGDKEEKKEDSEKEAKKSSKKRNRKHSGDDSFDEGSVSESESESESGQAEEEKEEAEEALKEKEKPKEEEWEKPKDAAGLECKPRPLHKTCSLFMRNIAPNISRAEIISLCKRYPGFMRVALSEPQPERRFFRRGWVTFDRSVNIKEICWNLQNIRLRECELSPGVNRDLTRRVRNINGITQHKQIVRNDIKLAAKLIHTLDDRTQLWASEPGTPPLPTSLPSQNPILKNITDYLIEEVSAEEEELLGSSGGAPPEEPPKEGNPAEINVERDEKLIKVLDKLLLYLRIVHSLDYYNTCEYPNEDEMPNRCGIIHVRGPMPPNRISHGEVLEWQKTFEEKLTPLLSVRESLSEEEAQKMGRKDPEQEVEKFVTSNTQELGKDKWLCPLSGKKFKGPEFVRKHIFNKHAEKIEEVKKEVAFFNNFLTDAKRPALPEIKPAQPPGPAQILPPGLTPGLPYPHQTPQGLMPYGQPRPPILGYGAGAVRPAVPTGGPPYPHAPYGAGRGNYDAFRGQGGYPGKPRNRMVRGDPRAIVEYRDLDAPDDVDFF [SRRT]”, for which the “solubility in G1/S (log2)” value with HeLa Kyoto [1] was -0.305. Also, the values for the thermal stability score in the data set on HeLa Kyoto [2] (setting [5]) and with HeLa Kyoto [2] (cell cycle stage: mitosis) were 2.79 and 6.86, respectively. Further, in the data set on HeLa Kyoto [3], the “solubility change mitosis (log2)” value amounted to 0.214. Moreover, the figures for the melting temperature with HeLa Kyoto [4] (cell cycle stage: G1/S) and in the data set with HeLa Kyoto [4] (cell cycle stage: mitosis) were 48.2 °C and 49.1 °C, respectively.

With “MGDTSEDASIHRLEGTDLDCQVGGLICKSKSAASEQHVFKAPAPRPSLLGLDLLASLKRREREEKDDGEDKKKSKVSSYKDWEESKDDQKDAEEEGGDQAGQNIRKDRHYRSARVETPSHPGGVSEEFWERSRQRERERREHGVYASSKEEKDWKKEKSRDRDYDRKRDRDERDRSRHSSRSERDGGSERSSRRNEPESPRHRPKDAATPSRSTWEEEDSGYGSSRRSQWESPSPTPSYRDSERSHRLSTRDRDRSVRGKYSDDTPLPTPSYKYNEWADDRRHLGSTPRLSRGRGRREEGEEGISFDTEEERQQWEDDQRQADRDWYMMDEGYDEFHNPLAYSSEDYVRRREQHLHKQKQKRISAQRRQINEDNERWETNRMLTSGVVHRLEVDEDFEEDNAAKVHLMVHNLVPPFLDGRIVFTKQPEPVIPVKDATSDLAIIARKGSQTVRKHREQKERKKAQHKHWELAGTKLGDIMGVKKEEEPDKAVTEDGKVDYRTEQKFADHMKRKSEASSEFAKKKSILEQRQYLPIFAVQQELLTIIRDNSIVIVVGETGSGKTTQLTQYLHEDGYTDYGMIGCTQPRRVAAMSVAKRVSEEMGGNLGEEVGYAIRFEDCTSENTLIKYMTDGILLRESLREADLDHYSAIIMDEAHERSLNTDVLFGLLREVVARRSDLKLIVTSATMDAEKFAAFFGNVPIFHIPGRTFPVDILFSKTPQEDYVEAAVKQSLQVHLSGAPGDILIFMPGQEDIEVTSDQIVEHLEELENAPALAVLPIYSQLPSDLQAKIFQKAPDGVRKCIVATNIAETSLTVDGIMFVIDSGYCKLKVFNPRIGMDALQIYPISQANANQRSGRAGRTGPGQCFRLYTQSAYKNELLTTTVPEIQRTNLANVVLLLKSLGVQDLLQFHFMDPPPEDNMLNSMYQLWILGALDNTGGLTSTGRLMVEFPLDPALSKMLIVSCDMGCSSEILLIVSMLSVPAIFYRPKGREEESDQIREKFAVPESDHLTYLNVYLQWKNNNYSTIWCNDHFIHAKAMRKVREVRAQLKDIMVQQRMSLASCGTDWDIVRKCICAAYFHQAAKLKGIGEYVNIRTGMPCHLHPTSSLFGMGYTPDYIVYHELVMTTKEYMQCVTAVDGEWLAELGPMFYSVKQAGKSRQENRRRAKEEASAMEEEMALAEEQLRARRQEQEKRSPLGSVRSTKIYTPGRKEQGEPMTPRRTPARFGL [DHX38]”, the “solubility in G1/S (log2)” value in the data set with HeLa Kyoto [1] is -0.327. Moreover, the results for the thermal stability score with HeLa Kyoto [2] (setting [5]) and in the data set on HeLa Kyoto [2] (cell cycle stage: mitosis) were 0.477 and 0.888, respectively. The “solubility change mitosis (log2)” value with HeLa Kyoto [3] turned out to be 0.0419. Further, the melting temperature came out at 50.8 °C with HeLa Kyoto [4] (cell cycle stage: G1/S) and 52 °C in the data set with HeLa Kyoto [4] (cell cycle stage: mitosis).

As to “MGEIEQRPTPGSRLGAPENSGISTLERGQKPPPTPSGKLVSIKIQMLDDTQEAFEVPQRAPGKVLLDAVCNHLNLVEGDYFGLEFPDHKKITVWLDLLKPIVKQIRRPKHVVVKFVVKFFPPDHTQLQEELTRYLFALQVKQDLAQGRLTCNDTSAALLISHIVQSEIGDFDEALDREHLAKNKYIPQQDALEDKIVEFHHNHIGQTPAESDFQLLEIARRLEMYGIRLHPAKDREGTKINLAVANTGILVFQGFTKINAFNWAKVRKLSFKRKRFLIKLRPDANSAYQDTLEFLMASRDFCKSFWKICVEHHAFFRLFEEPKPKPKPVLFSRGSSFRFSGRTQKQVLDYVKEGGHKKVQFERKHSKIHSIRSLASQPTELNSEVLEQSQQSTSLTFGEGAESPGGQSCRRGKEPKVSAGEPGSHPSPAPRRSPAGNKQADGAASAPTEEEEEVVKDRTQQSKPQPPQPSTGSLTGSPHLSELSVNSQGGVAPANVTLSPNLSPDTKQASPLISPLLNDQACPRTDDEDEGRRKRFPTDKAYFIAKEVSTTERTYLKDLEVITSWFQSTVSKEDAMPEALKSLIFPNFEPLHKFHTNFLKEIEQRLALWEGRSNAQIRDYQRIGDVMLKNIQGMKHLAAHLWKHSEALEALENGIKSSRRLENFCRDFELQKVCYLPLNTFLLRPLHRLMHYKQVLERLCKHHPPSHADFRDCRAALAEITEMVAQLHGTMIKMENFQKLHELKKDLIGIDNLVVPGREFIRLGSLSKLSGKGLQQRMFFLFNDVLLYTSRGLTASNQFKVHGQLPLYGMTIEESEDEWGVPHCLTLRGQRQSIIVAASSRSEMEKWVEDIQMAIDLAEKSSSPAPEFLASSPPDNKSPDEATAADQESEDDLSASRTSLERQAPHRGNTMVHVCWHRNTSVSMVDFSIAVENQLSGNLLRKFKNSNGWQKLWVVFTNFCLFFYKSHQDNHPLASLPLLGYSLTIPSESENIQKDYVFKLHFKSHVYYFRAESEYTFERWMEVIRSATSSASRPHVLSHKESLVY [FARP1]”, the “solubility in G1/S (log2)” value with HeLa Kyoto [1] was -0.198. In addition, the thermal stability score is 1.1 in the data set with HeLa Kyoto [2] (setting [5]) and 2.25 with HeLa Kyoto [2] (cell cycle stage: mitosis). The “solubility change mitosis (log2)” value in the data set with HeLa Kyoto [3] was -0.0824. Besides, the values for the melting temperature in the data set with HeLa Kyoto [4] (cell cycle stage: G1/S) and in the data set on HeLa Kyoto [4] (cell cycle stage: mitosis) were 49.2 °C and 49.1 °C, respectively.

In the case of “MGFLQLLVVAVLASEHRVAGAAEVFGNSSEGLIEFSVGKFRYFELNRPFPEEAILHDISSNVTFLIFQIHSQYQNTTVSFSPTLLSNSSETGTASGLVFILRPEQSTCTWYLGTSGIQPVQNMAILLSYSERDPVPGGCNLEFDLDIDPNIYLEYNFFETTIKFAPANLGYARGVDPPPCDAGTDQDSRWRLQYDVYQYFLPENDLTEEMLLKHLQRMVSVPQVKASALKVVTLTANDKTSVSFSSLPGQGVIYNVIVWDPFLNTSAAYIPAHTYACSFEAGEGSCASLGRVSSKVFFTLFALLGFFICFFGHRFWKTELFFIGFIIMGFFFYILITRLTPIKYDVNLILTAVTGSVGGMFLVAVWWRFGILSICMLCVGLVLGFLISSVTFFTPLGNLKIFHDDGVFWVTFSCIAILIPVVFMGCLRILNILTCGVIGSYSVVLAIDSYWSTSLSYITLNVLKRALNKDFHRAFTNVPFQTNDFIILAVWGMLAVSGITLQIRRERGRPFFPPHPYKLWKQERERRVTNILDPSYHIPPLRERLYGRLTQIKGLFQKEQPAGERTPLLL [TM7SF3]”, the “solubility in G1/S (log2)” value in the data set with HeLa Kyoto [1] was -0.147. For the same sequence, the thermal stability score in the data set on HeLa Kyoto [2] (setting [5]) is -2.81; in the data set with HeLa Kyoto [2] (cell cycle stage: mitosis), -4.36. In the data set with HeLa Kyoto [3], the “solubility change mitosis (log2)” value is -0.244. Also, the figures for the melting temperature in the data set with HeLa Kyoto [4] (cell cycle stage: G1/S) and with HeLa Kyoto [4] (cell cycle stage: mitosis) were 56.8 °C and 55.3 °C, respectively.

Regarding “MGGAVVDEGPTGVKAPDGGWGWAVLFGCFVITGFSYAFPKAVSVFFKELIQEFGIGYSDTAWISSILLAMLYGTGPLCSVCVNRFGCRPVMLVGGLFASLGMVAASFCRSIIQVYLTTGVITGLGLALNFQPSLIMLNRYFSKRRPMANGLAAAGSPVFLCALSPLGQLLQDRYGWRGGFLILGGLLLNCCVCAALMRPLVVTAQPGSGPPRPSRRLLDLSVFRDRGFVLYAVAASVMVLGLFVPPVFVVSYAKDLGVPDTKAAFLLTILGFIDIFARPAAGFVAGLGKVRPYSVYLFSFSMFFNGLADLAGSTAGDYGGLVVFCIFFGISYGMVGALQFEVLMAIVGTHKFSSAIGLVLLMEAVAVLVGPPSGGKLLDATHVYMYVFILAGAEVLTSSLILLLGNFFCIRKKPKEPQPEVAAAEEEKLHKPPADSGVDLREVEHFLKAEPEKNGEVVHTPETSV [SLC16A3]”, the “solubility in G1/S (log2)” value in the data set on HeLa Kyoto [1] was 0.106. Also, the thermal stability score was -4.29 in the data set on HeLa Kyoto [2] (setting [5]) and -4.22 with HeLa Kyoto [2] (cell cycle stage: mitosis). Further, the “solubility change mitosis (log2)” value with HeLa Kyoto [3] is -0.161. Moreover, the melting temperature worked out at 60.1 °C in the data set with HeLa Kyoto [4] (cell cycle stage: G1/S) and 61.9 °C in the data set with HeLa Kyoto [4] (cell cycle stage: mitosis).

With “MGGFFSSIFSSLFGTREMRILILGLDGAGKTTILYRLQVGEVVTTIPTIGFNVETVTYKNLKFQVWDLGGQTSIRPYWRCYYSNTDAVIYVVDSCDRDRIGISKSELVAMLEEEELRKAILVVFANKQDMEQAMTSSEMANSLGLPALKDRKWQIFKTSATKGTGLDEAMEWLVETLKSRQ [ARL1]”, the “solubility in G1/S (log2)” value in the data set with HeLa Kyoto [1] was -0.143. Moreover, the values for the thermal stability score in the data set on HeLa Kyoto [2] (setting [5]) and in the data set on HeLa Kyoto [2] (cell cycle stage: mitosis) were 2.08 and -0.342, respectively. The “solubility change mitosis (log2)” value in the data set with HeLa Kyoto [3] is -0.202. Moreover, the figures for the melting temperature in the data set with HeLa Kyoto [4] (cell cycle stage: G1/S) and in the data set with HeLa Kyoto [4] (cell cycle stage: mitosis) were 50.3 °C and 50.9 °C, respectively.
